Data from paper PMC8465381, “Dopamine-Conjugated Carbon Dots Inhibit Human Calcitonin Fibrillation” (Nanomaterials, 2021).
Positions of bridges follow the written chain, without caps; N, C: chain ends. No end group written: not given here.

Molecular target: the molecule itself
Assay: thioflavin-T fluorescence kinetics + TEM; 64 μM hCT alone, 50 mM phosphate buffer pH 7.4, 16 μM ThT, 1% DMSO, 25 °C, 384-well nonbinding plate with agitation every 2 h; end products negatively stained for TEM; fibril formation (self-assembly)

B1: Human calcitonin (peptide, UniProt P01258 85-116, looked up)
peptide: CGNLSTCMLGTYTQDFNKFHTFPQTAIGVGAP-NH2
modifications: disulfide 1-7
notes: human calcitonin, 32-residue hormone peptide cut from the calcitonin precursor; numbers count on: the mature protein; Forms amyloid fibrils; preformed fibrils of the same peptide were used as seeds; also called hCT; source: synthetic peptide (Fmoc solid-phase synthesis, RP-HPLC purified)
binding result: binds
